These results are taken from patent publication US20160208226A1, “Transaminase Biocatalysts” (COMMONWEALTH SCIENTIFIC AND INDUSTRIAL RESEARCH ORGANISATION, priority 2013, published 2016).

A short description of data set [1]: Solubility of the substrates in the alanine dehydrogenase-coupled kinetic assay. Type of data set: physicochemical. Particulars: assay buffer; kinetic parameters cannot be determined. The source says: The alanine dehydrogenase-coupled assay has been used to determine some early kinetic parameters for p6 and p7. Reactions with C3 to C8 for p6 and C4 to […] have been fully characterised and show no clear trend in terms of reaction rate vs. carbon chain length. For C11 and C12, the solubility of the substrates is extremely low, and as such, kinetic parameters cannot be determined.
The alanine dehydrogenase-coupled assay has been used to determine some early kinetic parameters for all the aforementioned enzymes. Reactions with C3 to C8 for p6 and C4 to C8 for p7 have been fully characterised and show no clear trend in terms of reaction rate vs. carbon chain length. For C11 and C12, the solubility of the substrates is extremely low, and as such, kinetic parameters cannot be determined.

A short description of data set [2]: Coupled dehydrogenase assays for transaminase activity of the Pseudomonas sp. proteins and ancestral reconstructions. Particulars: E. coli expressed, purified proteins. Type of data set: biochemical. On the procedure:
Activity for each protein was assessed using coupled dehydrogenase assays as described previously. A typical assay comprised:
Substrate (6.25 mM final concentration in potassium phosphate buffer)
Co-substrate (pyruvate (0.5 mM final concentration) or α-KG (0.25 mM final concentration)
NAD (1.25 mM final concentration)
Dehydrogenase (1 μL from ADH-≧35 units/mL stock solution or GDH≧35 units/mg protein stock)
Transaminase (final concentration dependent)
Potassium phosphate buffer (100 mM)
UV absorbance at 340 nm was recorded at 28° C. over a pH range of 7.5-10 with a range of substrates.
Proteins encoded by p7N6, p7N15, p7N16, p7N17, p7N43 and p7N48 were expressed using an E. coli recombinant expression platform and subsequently purified.
Each of the proteins were assayed for substrate specificity. Substrates identified by assaying for each of the proteins are summarized below.

The nature of data set [3]: Coupled assay of GabT with glutamate dehydrogenase (NADH formation at 340 nm). Type of data set: biochemical. The following applies: coupled GDH assay, NADH detected at 340 nm. The source says:
DNA encoding the GabT protein from E. coli strain BL21-DE3 was amplified from genomic DNA using specially designed primers. The PCR product was restricted using NdeI and BamHI restriction endonucleases (NEB) and ligated (T4 DNA ligase, NEB) into a modified pET expression vector that had also been restricted using the aforementioned enzymes, and contained ampicillin resistance for selectivity. The vector was transformed into electrocompetent E. coli strain BL21-DE3 and transformants plated onto LB agar plates containing ampicillin (100 μg/mL) for selectivity. Transformant DNA was isolated and sent for sequencing to confirm the identity of the vector construct. […] The protein was purified using a HiTrap Chelating HP 5 mL column (GE Healthcare) for nickel affinity chromatography on an FPLC (Fast Protein Liquid Chromatography. GE Healthcare), exploiting an N-terminal His6-tag on GabT. SDS-PAGE confirmed the protein size.
Protein activity was confirmed using a coupled assay that comprised GabT and a commercially available glutamate dehydrogenase (GDH; Sigma Aldrich). The assay works as illustrated below, with the dehydrogenase catalysing the oxidative deamination of glutamate—the co-product of the GabT transamination reaction.
Therefore, although a viable biocatalyst for these substrates had been identified, it could not produce the desired longer chain (>C9) products. […]

With `NCCCCCCCCCCC(=O)O` [C11, 11-aminoundecanoic acid], the “solubility of the substrates” value in data set [1] is recorded as “extremely low”.
The same measure, in the same setting: with `NCCCCCCCCCCCC(=O)O` [C12, 12-aminododecanoic acid] the entry was “extremely low”.

B1: p7N16: de novo peptide sequence based on p7, produced by ancestral reconstruction; SEQ ID NO:9 (protein)
chain: MQSLDQLFEMDRAHFMHPSTHAHDHASGALPGRIITGGKGIRIEDHEGREYIDAFAGLYCVNIGYGRTEVADAIYEQAKQLAYYHTYVGHSTDAIIELSSRIIRDWAPAGMKKVYYGMSGSDANETQIKLVWYYNNVLGRPNKKKIISRERGYHGSGIVTGSLTGLPSFHQHFDLPIDRVKHTVCPHWYRAPAGMSEAQFVAYCVEELEKLIAREGADTIAAFIAEPVMGTGGIIPPPQGYWEAIQAVLRKHDILLIADEVVCGFGRLGSKMGSQHYGIKPDLITVAKGLTSAYAPLSGVIVGEKVWDVIEKGSQEHGPMGHGWTYSGHPICAAAALANLDILERENLTGNAADVGAYLQQRLHEAFGAHPLVGEVRGVGMLAALEFMADKDARTPFDPALKVGPKVSAAALEDGMIARAMPHGDILGFAPPLVTTRAEVDEIVGIAKQAVDEVADEVL
modifications: Molecule produced by ancestral reconstruction
Take B1: the “activity of ancestral reconstruction proteins in the coupled assays” value (“activity” below) in data set [2] is “activity in accordance with p7”.

B2: p7N15: de novo peptide sequence based on p7, produced by ancestral reconstruction; SEQ ID NO:8 (protein)
chain: MTDLDQLFEMDRAHFMHPSTHAHDHASGALPGRIITGGKGIRIQDHEGREYIDAFAGLYCVNIGYGRTEVADAIYEQAKELAYYHTYVGHSTEAIIELSSRIIRDWAPAGMKKVYYGMSGSDANETQIKLVWYYNNVLGRPQKKKIISRQRGYHGSGIMTGSLTGLPSFHQHFDLPIERIKHTVCPHWYKAPAGMSEAQFVRYCADELEKLILAEGPDTVAAFIGEPVMGTGGIIPPPQGYWEAIQAVLNKYDILLIADEVVCGFGRLGSKMGSQHYGMKPDLITVAKGLTSAYAPLSGVIVGEKVWDVIEKGSQEHGPMGHGWTYSGHPICAAAALANLDILERENLTGNAADVGAYLQQRLRETFGGHPLVGEVRGVGMLAALEFMADKDARTPFDPALKVGPKVSAACLEDGMIARAMPHGDILGFAPPLVITRAEVDEIVGIAKQAVDEVADEVL
modifications: Molecule produced by ancestral reconstruction
Consider B2, for which the “activity” value in data set [2] is reported as “activity in accordance with p7”.

B3: GabT: Gamma-aminobutyrate Transaminase; E.C. 2.6.1.19, from E. coli strain BL21-DE3, N-terminal His6-tag (protein, listed as Escherichia coli)
chain: MNSNKELMQRRSQAIPRGVGQIHPIFADRAENCRVWDVEGREYLDFAGGIAVLNTGHLHPKVVAAVEAQLKKLSHTCFQVLAYEPYLELCEIMNQKVPGDFAKKTLLVTTGSEAVENAVKIARAATKRSGTIAFSGAYHGRTHYTLALTGKVNPYSAGMGLMPGHVYRALYPCPLHGISEDDAIASIHRIFKNDAAPEDIAAIVIEPVQGEGGFYASSPAFMQRLRALCDEHGIMLIADEVQSGAGRTGTLFAMEQMGVAPDLTTFAKSIAGGFPLAGVTGRAEVMDAVAPGGLGGTYAGNPIACVAALEVLKVFEQENLLQKANDLGQKLKDGLLAIAEKHPEIGDVRGLGAMIAIELFEDGDHNKPDAKLTAEIVARARDKGLILLSCGPYYNVLRILVPLTIEDAQIRQGLEIISQCFDEAKQ
modifications: N-terminal His6-tag
notes: Gamma-aminobutyrate Transaminase; E.C; 2.6.1.19, from E. coli strain BL21-DE3, N-terminal His6-tag
As for B3, the “substrate scope of GabT” value in data set [3] is “C4-C8 omega-amino acids”.

B4: p7N17: de novo peptide sequence based on p7, produced by ancestral reconstruction; SEQ ID NO:10 (protein)
chain: MTSLDQLFEEDRAHFMHPSTHAHDHASGALPGKIVTGGKGIRIEDHQGREYIDAFAGLYCVNIGYGRTEVADAIYEQAKQLAYYHTYVGHSTDAIIELSSRIIRDWAPAGMKKVYYGMSGSDANETQIKIVWYYNNVLGRPNKKKIISRERGYHGSGIVTGSLTGLPSFHQHFDLPIDRVKHTVCPHWYKAPAGMSEAQFVAYCVEELEKLIAREGADTIAAFIAEPVMGTGGIIAPPQGYWEAIQAVLRKHDILLISDEVVCGFGRLGSKMGAQHYGIKPDLITVAKGLTSAYAPLSGVIVGEKVWDVIEKGSQEHGPMGHGWTYSGHPICAAAALANLDILERENLTGNAADVGAYLQQRLHEAFGAHPLVGEVRGVGMLAALEFMADKDARTPFDPALKVGPKVSAAALEDGVIARAMPHGDILGFAPPLVTTRAEVDEIVGIVKQAVDEVADEVL
modifications: Molecule produced by ancestral reconstruction
Turning to B4, the “activity” value in data set [2] was “activity in accordance with p7”.

B5: p7N48: de novo peptide sequence based on p7, produced by ancestral reconstruction; SEQ ID NO:12 (protein)
chain: MTDTDDLLEMDRAHFFHPSTHLRDHASGELPGRIITGGKGIRIQDSEGREYIDAFAGLYCVNVGYGRTEIADAIYEQAKELAYYHTYVGHSNEPIIELSERIIREWAPAGMSKVYYGMSGSDANETQIKLVWYYNNVLGRPQKKKIISRQRGYHGSGIMTGSLTGLPAFHNHFDLPLEPIRHTTCPHYYRAPAGMSEAEFSRHCADELEKMILAEGPDTVAAFIGEPVMGTGGIVPPPEGYWEAIQAVLNKYDILLIADEVVCGFGRTGSMFGSHHYGMKPDLITVAKGLTSAYAPLSGVIVGEKVWKVLEQGSDQYGPIGHGWTYSGHPICAAAALANLDIIERENLTGNAADTGAYFQQRMRETFGDHPLVGEVRGVGLMAALEFVADKDKRTRFDPSLKVGPRVSAACLEDGMIARAMPHGDILGFAPPLVITRAEVDEIVDIAKQAVDAVADELV
modifications: Molecule produced by ancestral reconstruction
On to B5, for which, in data set [2], the “activity” value is given as “activity in accordance with p7”.

B6: p7N43: de novo peptide sequence based on p7, produced by ancestral reconstruction; SEQ ID NO:11 (protein)
chain: MTSLEQLLEMDRAHFMHPSTHAYDHASGALPGRIITGGKGIRIEDHEGREYIDAFAGLYCVNIGYGREEVADAIYEQAKQLAYYHTYVGHSNDPVIELSSRIIEDWAPAGMKKVFYGMSGSDANETQIKLVWYYNNVLGRPNKKKIIARERSYHGSGIVTGSLTGLPSFHQHFDLPIDRVKHTVCPHWYNAPPGMSEAQFVAYCVEELEKLIAREGADTIAAFIAEPVMGTGGIVPPPQGYWEAIQAVLRKHDILLIADEVVCGFGRLGSKTGSEHYGIKPDLITVAKGLTSAYAPLSAVIVSEKVWDVIEKGSREHGVMGHGWTYSGHPVCAAAALANLDILERENLTGNAADVGAYLQQRLHEAFGAHPLVGEVRGVGMLAALEFMADKGARTPFDPALKVSQKVAAAALEDGLIVRALPHGDILGFAPPLVTTRAEVDEIVAIAKEAFDEVADAVL
modifications: Molecule produced by ancestral reconstruction
On to B6, for which, in data set [2], the “activity” value was “activity in accordance with p7”.
